75 variants from publication doi:10.1101/2021.08.20.457142 can be followed below.

B1: MKK7 D-site peptide (second D-site) / JNK1 alpha1 (MAPK8 isoform 1) L198A, full length (parent complex)
chain 1: SQPQRPRPTLQLPLANEAFEQP
chain 2: MSRSKRDNNFYSVEIGDSTFTVLKRYQNLKPIGSGAQGIVCAAYDAILERNVAIKKLSRPFQNQTHAKRAYRELVLMKCVNHKNIIGLLNVFTPQKSLEEFQDVYIVMELMDANLCQVIQMELDHERMSYLLYQMLCGIKHLHSAGIIHRDLKPSNIVVKSDCTLKILDFGLARTAGTSFMMTPYVVTRYYRAPEVIAGMGYKENVDLWSVGCIMGEMVCHKILFPGRDYIDQWNKVIEQLGTPCPEFMKKLQPTVRTYVENRPKYAGYSFEKLFPDVLFPADSEHNKLKASQARDLLSKMLVIDASKRISVDEALQHPYINVWYDPSEAEAPPPKIPDKQLDEREHTIEEWKELIYKEVMDLEERTKNGVIRGQPSPLAQVQQ

Variants of B1 are the subject of the experiment.
In the case of chain 1 P13Y, the screen value was 1.41 Z-score of the enrichment rate within one screen of 711 sequences.
On to chain 1 P13W, for which the screen value is 1.26 Z-score of the enrichment rate within one screen of 711 sequences.
The figure for chain 1 P13A is 1.14 Z-score of the enrichment rate within one screen of 711 sequences; for chain 1 P13I it is 0.957 Z-score of the enrichment rate within one screen of 711 sequences; for chain 1 Q11A, chain 1 L12A it is -0.605 Z-score of the enrichment rate within one screen of 711 sequences.
The figure for chain 1 P6E is 1.2 Z-score of the enrichment rate within one screen of 711 sequences.
Next, chain 1 P6R: 1.25 Z-score of the enrichment rate within one screen of 711 sequences; chain 1 P6W: 1.02 Z-score of the enrichment rate within one screen of 711 sequences; chain 1 P6S: 0.764 Z-score of the enrichment rate within one screen of 711 sequences.
chain 1 Q11A, chain 1 L14A: the screen value is 0.716 Z-score of the enrichment rate within one screen of 711 sequences.
Regarding chain 1 L10A, chain 1 L12A, the screen value is -0.511 Z-score of the enrichment rate within one screen of 711 sequences.
Take chain 1 Q4T: the screen value was 1.45 Z-score of the enrichment rate within one screen of 711 sequences.
As for chain 1 Q4A, the screen value is 1.48 Z-score of the enrichment rate within one screen of 711 sequences.
The figure for chain 1 P3S, chain 1 Q4K is 1.43 Z-score of the enrichment rate within one screen of 711 sequences; for chain 1 P8A, chain 1 N16A it is 0.523 Z-score of the enrichment rate within one screen of 711 sequences; for chain 1 Q4A, chain 1 T9A it is 1.32 Z-score of the enrichment rate within one screen of 711 sequences.
Turning to chain 1 Q11A, chain 1 N16A, the screen value was 1.16 Z-score of the enrichment rate within one screen of 711 sequences.
As for chain 1 Q11K, the screen value is 1.58 Z-score of the enrichment rate within one screen of 711 sequences.
Regarding chain 1 Q11L, the screen value was 1.67 Z-score of the enrichment rate within one screen of 711 sequences.
Next, chain 1 Q4A, chain 1 Q11A: 1.43 Z-score of the enrichment rate within one screen of 711 sequences; chain 1 L14A, chain 1 N16A: 0.658 Z-score of the enrichment rate within one screen of 711 sequences; chain 1 P8G: 0.304 Z-score of the enrichment rate within one screen of 711 sequences.
Consider chain 1 P8R, for which the screen value was 0.631 Z-score of the enrichment rate within one screen of 711 sequences.
The figure for chain 1 P8H is 0.889 Z-score of the enrichment rate within one screen of 711 sequences; for chain 1 P8Y it is 0.574 Z-score of the enrichment rate within one screen of 711 sequences; for chain 1 L10D it is -0.874 Z-score of the enrichment rate within one screen of 711 sequences.
The figure for chain 1 L10H is -0.321 Z-score of the enrichment rate within one screen of 711 sequences.
chain 1 L10Q: the screen value was -0.301 Z-score of the enrichment rate within one screen of 711 sequences.
The figure for chain 1 L10W is -0.417 Z-score of the enrichment rate within one screen of 711 sequences; for chain 1 N16I it is 1.55 Z-score of the enrichment rate within one screen of 711 sequences.
The figure for chain 1 N16F is 1.8 Z-score of the enrichment rate within one screen of 711 sequences; for chain 1 R7A, chain 1 P13A it is 0.166 Z-score of the enrichment rate within one screen of 711 sequences.
The figure for chain 1 T9A, chain 1 L14A is 0.13 Z-score of the enrichment rate within one screen of 711 sequences; for chain 1 Q4A, chain 1 P6A it is 1.09 Z-score of the enrichment rate within one screen of 711 sequences; for chain 1 T9S it is 1.4 Z-score of the enrichment rate within one screen of 711 sequences.
As for chain 1 T9V, the screen value was 1.12 Z-score of the enrichment rate within one screen of 711 sequences.
The figure for chain 1 T9A is 0.998 Z-score of the enrichment rate within one screen of 711 sequences.
Next, chain 1 T9D: 0.933 Z-score of the enrichment rate within one screen of 711 sequences; chain 1 T9I: 1.93 Z-score of the enrichment rate within one screen of 711 sequences; chain 1 R5A, chain 1 N16A: 0.479 Z-score of the enrichment rate within one screen of 711 sequences.
As for chain 1 P3A, chain 1 R7A, the screen value was 0.212 Z-score of the enrichment rate within one screen of 711 sequences.
Turning to chain 1 L12A, chain 1 N16A, the screen value was -0.599 Z-score of the enrichment rate within one screen of 711 sequences.
chain 1 P6A, chain 1 N16A: the screen value is 1.19 Z-score of the enrichment rate within one screen of 711 sequences.
Next, chain 1 P3C: 1.42 Z-score of the enrichment rate within one screen of 711 sequences; chain 1 P3K: 1.42 Z-score of the enrichment rate within one screen of 711 sequences.
For the variant chain 1 P3L, the screen value is 1.07 Z-score of the enrichment rate within one screen of 711 sequences.
Next, chain 1 P3Y: 1.41 Z-score of the enrichment rate within one screen of 711 sequences; chain 1 P3A: 1.42 Z-score of the enrichment rate within one screen of 711 sequences; chain 1 P3E: 1.21 Z-score of the enrichment rate within one screen of 711 sequences.
Take chain 1 P3T: the screen value is 1.7 Z-score of the enrichment rate within one screen of 711 sequences.
chain 1 P6A, chain 1 Q11A: the screen value was 1.17 Z-score of the enrichment rate within one screen of 711 sequences.
Next, chain 1 A15M: 1.57 Z-score of the enrichment rate within one screen of 711 sequences.
Regarding chain 1 A15Y, the screen value is 1.64 Z-score of the enrichment rate within one screen of 711 sequences.
On to chain 1 A15P, for which the screen value is 1.61 Z-score of the enrichment rate within one screen of 711 sequences.
Next, chain 1 P13A, chain 1 L14A: 0.556 Z-score of the enrichment rate within one screen of 711 sequences; chain 1 P6A, chain 1 T9A: 1.16 Z-score of the enrichment rate within one screen of 711 sequences.
With chain 1 R5Q, the screen value was 1.01 Z-score of the enrichment rate within one screen of 711 sequences.
The figure for chain 1 R5G is 0.242 Z-score of the enrichment rate within one screen of 711 sequences.
On to chain 1 R5N, for which the screen value is 0.604 Z-score of the enrichment rate within one screen of 711 sequences.
For chain 1 R5K, the screen value was 1.36 Z-score of the enrichment rate within one screen of 711 sequences.
Consider chain 1 R5T, for which the screen value is 1.01 Z-score of the enrichment rate within one screen of 711 sequences.
For the variant chain 1 T9A, chain 1 N16A, the screen value was 0.774 Z-score of the enrichment rate within one screen of 711 sequences.
With chain 1 L12F, the screen value is 0.226 Z-score of the enrichment rate within one screen of 711 sequences.
In the case of chain 1 L12T, the screen value is -0.304 Z-score of the enrichment rate within one screen of 711 sequences.
The figure for chain 1 L12R is -0.521 Z-score of the enrichment rate within one screen of 711 sequences.
Next, chain 1 P6A, chain 1 P8A: 0.889 Z-score of the enrichment rate within one screen of 711 sequences; chain 1 L14W: 1.36 Z-score of the enrichment rate within one screen of 711 sequences; chain 1 L14S: 0.942 Z-score of the enrichment rate within one screen of 711 sequences.
The figure for chain 1 L14V is 0.826 Z-score of the enrichment rate within one screen of 711 sequences; for chain 1 L14C it is 1.27 Z-score of the enrichment rate within one screen of 711 sequences.
In the case of chain 1 L14G, the screen value was 0.653 Z-score of the enrichment rate within one screen of 711 sequences.
Consider chain 1 L14E, for which the screen value is 0.365 Z-score of the enrichment rate within one screen of 711 sequences.
As to chain 1 R7T, the screen value was 0.638 Z-score of the enrichment rate within one screen of 711 sequences.
Next, chain 1 R7C: 0.232 Z-score of the enrichment rate within one screen of 711 sequences.
Regarding chain 1 R7Y, the screen value is 0.245 Z-score of the enrichment rate within one screen of 711 sequences.
